Laboratory results reported in the supplement of paper PMC9170038.

System: MS2 coat protein
Experiment: apparent KD of MS2 coat protein; designed switch direction (-1 OFF switch, 1 ON switch): -1; higher = weaker reporter binding
Procedure, shortened: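 The apparent KD reported per design is the median over clusters of curve fits to normalised cluster fluorescence. The RNA switches were transcribed on Illumina chips by stalled E. coli RNA polymerase. SNAP-549-labelled MS2 coat protein was titrated from 0.7 or 1.5 nM, doubling up to 3 µM, in Tris-HCl pH 7.5 buffer containing KCl, MgCl2, BSA, DTT, tRNA and Tween-20, with no input, 200 uM small-molecule ligand, or an oligonucleotide input.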

[1] = Eterna round: R95, input ligand: FMN 200 uM
[2] = Eterna round: R95, input ligand: microRNA oligo, concentration not stated
[3] = Eterna round: R95, input ligand: none
[4] = input ligand: microRNA oligo, concentration not stated

Sequence	apparent KD of MS2 coat protein (input ligand: FMN 200 uM) [nM]	apparent KD of MS2 coat protein (input ligand: none) [nM]	apparent KD of MS2 coat protein [1] [nM]	apparent KD of MS2 coat protein [2] [nM]	apparent KD of MS2 coat protein [3] [nM]	apparent KD of MS2 coat protein [4] [nM]
CCCUUGUGAGGAUAUUUUUAAAAUGCUAACCACAAUUUUAUGAAGAAGGUACAUGAGGAUCACCCAUGUUUCUC [Tried to obey the law of the pack] (Eterna round: R97, puzzle: Exclusion 4)	20	21	–	–	–	–
CCGAAAAGGAAGGAUAUGCUUGACGAAAGUCAAGCAGAAGGUCCUACAUGAGGAUCACCCAUGUGGUCCUUCGG [Mat - Exclusion 6 - Eli Mod - D36] (Eterna round: R97, puzzle: Exclusion 6)	629	450	–	–	–	–
CCGAAGUGGCGGUCCUAUGACAUGAGGAUCACCCAUGUACUUCGCCACAAGCUUUUUGCUCAUCUUAUAGUUCUCGG [Ator] (puzzle: Sensor v3, turn-off variant 1)	–	–	16.4	25.1	16.4	–
CCGACGUGAGGAUAUUAGAACGAGCAGACCUGAGCUCGUUCUGAGAAGGCACAUGAGGAUCACCCAUGUGAGAA [Eternabot (Original) Solution 50] (Eterna round: R97, puzzle: Exclusion 4)	352	31.4	–	–	–	–
CCGAGCAGACGGAGAUCCAACAUGAGGAUCACCCAUGUCUCAAAAGCUUUUUGCUCGUCUUAUCCUCCUCUGUUCUC [Legedi] (puzzle: Sensor v3, turn-off variant 1)	–	–	27.6	200	25.7	–
CCGCAAAUGCAGGAUAUCGUAUCGGAUACGAUACGAGAAGGGUAUACAUGAGGAUCACCCAUGUGUCCUAGCGG [Fiskers Ex 6 - 45] (puzzle: Exclusion 6)	–	–	23.9	20.3	21.5	–
CCGCAAAUGGAGGAUAUCGUAUCGGAUACGAUACGAGAAGGCCAAACAUGAGGAUCACCCAUGUGUCCUAGCGG [Fiskers Ex 6 - 37] (puzzle: Exclusion 6)	–	–	30	14.2	18.6	–
CCGCUCCGUGUAGGAUAUUGGCGUGCCCUGCGCCGAGAAGGACAUGAGGAUCACCCAUGUAUGUUAUUAUCACGCGUGGCGCAU [Design 77] (Eterna round: R96, puzzle: Exclusion NG 1)	32.2	22	–	–	–	16.7
CCGGAAAGGAAGGAUAUGCUAGACGAUAGUCUAGCAGAAGGUCCUACAUGAGGAUCACCCAUGUGGUCCUCCGG [Mat - Exclusion 6 - Eli Mod - D33] (Eterna round: R97, puzzle: Exclusion 6)	274	1210	–	–	–	–
CCGGAAAUGUAGGAUAUAGGAGUCGAUAGACACCUAGAAGGGCAUACAUGAGGAUCACCCAUGUGUCCUACCGG [Fiskers Ex 6 - 80] (puzzle: Exclusion 6)	–	–	–	11.8	–	–
CCGGCAUGAGGAUAUCCAUCUGGAUCAGACAAGAUCCUGAUGGAGAAGGCACAUGAGGAUCACCCAUGUUACGG [Mat - Exclusion 4 - Eli Mod - D56] (Eterna round: R97, puzzle: Exclusion 4)	61.8	132	–	–	–	–
CCGGCUGCUGUGAGGAUAUGCCUGUGGGUGCGUGGGUAGAAGGCACAUGAGGAUCACCCAUGUCCUGCGGUCCC [salish99_bmx4_r4_113] (Eterna round: R97, puzzle: Brourd's mod of Exclusion 4)	63.9	66	–	–	–	–
CCGGCUUAGGAGGAUAUCCCACCCGAAAGGGUGGGAGAAGGCCUAACAUGAGGAUCACCCAUGUGUCCUACCGG [Mod of Eli 15 - Jieux - Exclusion 6] (Eterna round: R97, puzzle: Exclusion 6)	91.2	25.5	–	–	–	–
CCGGUUCAUUAGGAUAUGCAGGUGAACGGUGCCGUAGAAGGAAUGACAUGAGGAUCACCCAUGUAGAGGAAGUG [Eternabot (L2) Solution 82] (Eterna round: R97, puzzle: Exclusion 6)	36.8	55.1	–	–	–	–
CCGUAACAUGAGGAUCACCCAUGUUAGGAUAUGUAGCGCUGGGCAUCCUCAGCUGGUUAUAGAAGGGACGAGGG [Eternabot (L2) Solution 15] (Eterna round: R97, puzzle: Exclusion 1)	73.7	111	–	–	–	–
CCGUCAUCAGGAUAUCCACAUCUCUACAUGAGGAUCACCCAUGUAAGCUUGGGUAAUAGCGGAGAAGGGAUAGACU [Eternabot (Original) Solution 20] (Eterna round: R97, puzzle: Exclusion 5)	78.2	57.5	–	–	–	–
CCGUGCACGCUGCGGUCCUACAUGAGGAUCACCCAUGUGGUCCGGUGGCGUGGGUCGCCGGACUUGGCUCGUCUUGU [salish99_S_TOV1_R5_017] (Eterna round: R97, puzzle: Sensor, turn-off variant 1)	35.1	37.6	–	–	–	–

Sequence	apparent KD of MS2 coat protein (input ligand: FMN 200 uM) [nM]	apparent KD of MS2 coat protein (input ligand: none) [nM]	apparent KD of MS2 coat protein [1] [nM]	apparent KD of MS2 coat protein [2] [nM]	apparent KD of MS2 coat protein [3] [nM]	apparent KD of MS2 coat protein [4] [nM]
CCUCAACAGUAGGAUAUCAUAAAACUAUUGUGAUGAGAAGGACUGACAUGAGGAUCACCCAUGUUAACGUGAUA [Exclusion 6 - 5:a] (puzzle: Exclusion 6)	–	–	–	17.4	–	–
CCUCCACAUGAGGAUCACCCAUGUCAGGAUAUCGUGCGCGCGUUUUCGGUCUUUCGCGCGAGAAGGGACGACUG (puzzle: Exclusion 1)	–	–	–	24.1	–	–
CCUGCGGACAAAGGAUAUUGCGGUGGCCGGCUCAGUAAAUCUAGCCAACAUGAGGAUCACCCAUGUAAGAAGGUUGCCGUUGGU [Qudice] (Eterna round: R96, puzzle: Exclusion NG 2)	–	–	–	–	–	17
CCUGGGUCAUCUCCCAGGAACAACAUGAGGAUCACCCAUGUCUAGGAUAUCCACCAGUCAAUAAAGGAGAAGGAGACGGUGGUU [Onlaxe] (Eterna round: R96, puzzle: Exclusion NG 3)	22.2	19.7	–	–	–	14.6
CCUGUGACGCAGGAUAUCGAGCACAAUGCAUGUUGAGAAGGGCGUACAUGAGGAUCACCCAUGUCUCACGUAGG [Eternabot (L1) Solution 53] (Eterna round: R97, puzzle: Exclusion 6)	175	316	–	–	–	–
CCUUAUUAUCGAGGAUAUCCUAUUGAAAUUCUGGGAGAAGGCGGACUCAACAUGAGGAUCACCCAUGUGGGACGGAUGCUAGGA [salish99_exng1_r04_603] (Eterna round: R96, puzzle: Exclusion NG 1)	21	20.2	–	–	–	13.5
CCUUUGUCAGGAUAUCAGAAAACGCCCGUAGGGAGCGCAAAUGAGAAGGGACAUGAGGAUCACCCAUGUAAAGA [Edvereri] (puzzle: Exclusion 4)	–	–	204	50.1	53	–
CGACCACAUGAGGAUCACCCAUGUCAGGAUAUGAGAGCCUUACGAAAGAGACGGCAGCUUAGAAGGGAUGCGGC [Eternabot (L1) Solution 74] (Eterna round: R97, puzzle: Exclusion 1)	23.3	26.9	–	–	–	–
CGACUAAACGUGAGGAUAUGCGGUGCCAGAACAUUGCAGAAGGCACAUGAGGAUCACCCAUGUGUGGGAGAAGA [Eternabot (L1) Solution 43] (Eterna round: R97, puzzle: Brourd's mod of Exclusion 4)	241	103	–	–	–	–
CGAGACGGAGGAUAUACAUGAGGAUCACCCAUGUUAAACCACGGGUAGCCUUCGGUCGGUAGAAGGCCGCAUCG [Eternabot (Original) Solution 47] (Eterna round: R97, puzzle: Exclusion 3)	86.7	21.2	–	–	–	–
CGAGAGCGAGGAUAUACACAACACCUCACUGUCAAGAAAGGACAUGAGGAUCACCCAUGUAGAAGGUGCAAAGC [Xecerevear] (puzzle: Exclusion 2)	–	–	303	412	326	–
CGAUAAAGGUGAGGAUAUGAGAAUAGAAAGAAAUCAGAAGGCACACAUGAGGAUCACCCAUGUGAGUUCUCGAGAUUACAUGGU [Prohibition 45 - Jieux - Exclusion NG 1] (Eterna round: R96, puzzle: Exclusion NG 1)	–	–	–	–	–	10.8
CGAUCACAUGAGGAUCACCCAUGUGAGGAUAUAAUAACGCGGCGUGAGCACGGGAAUUUUAGAAGGCACACGGU [Eternabot (Original) Solution 42] (Eterna round: R97, puzzle: Exclusion 1)	14.2	13	–	–	–	–
CGAUCGGUAGGAUAUACAUGAACCUUGGUUGUGAGGCCUAAACAUGAGGAUCACCCAUGUAGAAGGACCUCGUA [EX2 C.10] (Eterna round: R97, puzzle: Exclusion 2)	13.9	13.8	–	–	–	–
CGAUGUCUUCGGACAUCGAACAUGAGGAUCACCCAUGUAAUGAGCAGAUCCUCAUGCAAGCUUUUUGCUCGUCUUAU [Sensor v3 - turn-off variant 1 - 45] (puzzle: Sensor v3, turn-off variant 1)	–	–	14	9.69	16.6	–
CGAUGUGGAGUGAGGAUAUCGUGUUCGAAAGAACGUGAGAAGGCACAUGAGGAUCACCCAUGUGAUCCAUGUCG [Omei Ex4B A8] (Eterna round: R97, puzzle: Brourd's mod of Exclusion 4)	31.7	26.4	–	–	–	–
CGCAAAAGGAAGGAUAUGCUAGACGAAAGUCUAGCAGAAGGUCCUACAUGAGGAUCACCCAUGUGUCCUAUGCG [Mat - Exclusion 6 - Eli Mod - D11] (Eterna round: R97, puzzle: Exclusion 6)	63.1	46.6	–	–	–	–
